The results in this text go back to paper PMC6591170.

In the data set the target is human alpha-thrombin (Homo sapiens, UniProt P00734;P00734 315-363;364-622). Kind of data set: ITC; ITC in PBS (10 mM phosphate, 2.7 mM KCl, 137 mM NaCl), pH 7.4, 22 °C; ODN 25 or 100 µM into thrombin 2.5 or 10 µM.

A word on the Kd: it is a measure of binding affinity in units of concentration. The molecule GGTTGGTGTGGTTGG (structured_DNA) [TBA] displayed a Kd of 8 nM.

B1: AA (structured_DNA)
DNA 1: GGTTGGTGTGGTTGGA
DNA 2: GGTTGGTGTGGTTGGA
modifications: 3'-3' phosphodiester inversion joins the two listed segments covalently (both written 5' to 3'); one molecule, not a duplex
In turn, B1 displayed a Kd of 10 nM.
